The results in this text go back to article PMC2732195.

For the experiment, the target named is wild type presenilin 1 (PS1) (UniProt P49768). The experiment in a line: FRET or BRET.

Substance “wild type human APP C99 (from UniProt P05067 672-770) (domain or fragment)” displayed an Alexa 430 donor lifetime (FRET) of 1230 ps; an Alexa 488 donor lifetime (FLIM), average per cell of 1890 ps; an Alexa 488 donor lifetime (FLIM), cell interior of 2090 ps; an Alexa 488 donor lifetime (FLIM), cell periphery of 1420 ps. Further, the FRET strength normalized to WT APP (normalized to WT APP) was 100.
